The source of these data is article PMC8366996, “A novel cascade allows Metarhizium robertsii to distinguish cuticle and hemocoel microenvironments during infection of insects”.

For data set [1], the target named is T1, COH2-DBD (Metarhizium robertsii, UniProt E9F6D9 1-100). As to the kind of experiment: EMSA; LightShift Chemiluminescent EMSA Kit; competitor up to 300-fold excess; buffer, salt, pH and temperature not stated. The settings on record: protein: recombinant; tags: His (pET28a); chain copies: 2; label: biotin on one strand (Bio-probe); unlabeled as Cold-probe.
Data set [2] deals with T1, COH2-DBD. Kind of data set: competition; unlabeled mutant, 300-fold excess; almost completely abolished shift; LightShift Chemiluminescent EMSA Kit; competitor up to 300-fold excess; buffer, salt, pH and temperature not stated. The conditions noted are these: protein: recombinant; tags: His (pET28a); chain copies: 2.

Positions count from the first letter of the chain named.

B1: COH2-BM wild-type probe (dsDNA)
DNA 1: TTCATCTGCCGAAATGTGGACGCTGACTCGGTATGCATTGCACCATCTC
DNA 2: GAGATGGTGCAATGCATACCGAGTCAGCGTCCACATTTCGGCAGATGAA
B1: in the data set with COH2-DBD [1], the binding result is listed as “binds”.

B2: 7A (dsDNA)
DNA 1: B1 DNA 1 with G30A
DNA 2: B1 DNA 2 with C20T
Take B2: in the data set with COH2-DBD [2], the binding result is “binds”.
